Assay results from publication PMC2914671, “A VLP-based vaccine targeting domain III of the West Nile virus E protein protects from lethal infection in mice” (Virology Journal, 2010).

Target: the molecule itself
Assay: transmission electron microscopy; purified AP205 VLPs adsorbed onto carbon-Formvar-coated grids, stained with 2% phosphotungstic acid

B1: AP205 virus-like particles (recombinantly expressed coat protein of bacteriophage AP205) (natural protein)
chain: MANKPMQPITSTANKIVWSDPTRLSTTFSASLLRQRVKVGIAELNNVSGQYVSVYKRPAPKPEGCADACVIMPNENQSIRTVISGSAENLATLKAEWETHKRNVDTLFASGNAGLGFLDPTAAIVSSDTTA
notes: coat protein of the Acinetobacter bacteriophage AP205; monomer 14.0 kDa; The VLPs hold about 25-30 ug of host cell RNA per 100 ug of coat protein; also called AP205 VLPs; AP205 VLP carrier; source: E. coli, purified from cleared lysates (Fractogel TMAE anion exchange, hydroxyapatite); copies: 180
binding result: binds
